What all share (assay): co-IP
The target in one experiment is T1, GpsB-L-FLAG^3 (Streptococcus pneumoniae (strain D39 …, UniProt Q8DR57 1-109)).
T1 sequence: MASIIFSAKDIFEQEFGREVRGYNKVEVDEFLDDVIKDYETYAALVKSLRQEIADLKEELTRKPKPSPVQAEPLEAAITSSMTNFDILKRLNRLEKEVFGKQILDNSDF

A further experiment has as its target T2, EzrA-L-FLAG^3 (Streptococcus pneumoniae (strain D39 …, UniProt Q8DQE5 1-575)).
T2 sequence: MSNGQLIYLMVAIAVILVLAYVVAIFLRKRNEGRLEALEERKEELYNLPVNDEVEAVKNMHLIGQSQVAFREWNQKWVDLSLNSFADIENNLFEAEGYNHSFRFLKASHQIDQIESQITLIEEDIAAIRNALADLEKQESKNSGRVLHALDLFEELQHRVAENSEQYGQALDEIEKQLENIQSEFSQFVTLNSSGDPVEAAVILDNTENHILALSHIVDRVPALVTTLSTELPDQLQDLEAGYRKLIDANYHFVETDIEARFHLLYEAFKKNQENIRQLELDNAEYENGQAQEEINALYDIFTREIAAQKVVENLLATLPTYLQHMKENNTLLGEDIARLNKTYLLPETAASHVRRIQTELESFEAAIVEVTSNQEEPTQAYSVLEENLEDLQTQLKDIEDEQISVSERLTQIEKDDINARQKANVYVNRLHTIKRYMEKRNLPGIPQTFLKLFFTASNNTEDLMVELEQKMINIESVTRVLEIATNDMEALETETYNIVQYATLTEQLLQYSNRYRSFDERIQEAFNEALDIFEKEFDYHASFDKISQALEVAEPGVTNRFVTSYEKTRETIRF

The target in the next experiment is T3, StkP-FLAG^2 (Streptococcus pneumoniae (strain D39 …, UniProt Q8DNS0 1-659)).
T3 sequence: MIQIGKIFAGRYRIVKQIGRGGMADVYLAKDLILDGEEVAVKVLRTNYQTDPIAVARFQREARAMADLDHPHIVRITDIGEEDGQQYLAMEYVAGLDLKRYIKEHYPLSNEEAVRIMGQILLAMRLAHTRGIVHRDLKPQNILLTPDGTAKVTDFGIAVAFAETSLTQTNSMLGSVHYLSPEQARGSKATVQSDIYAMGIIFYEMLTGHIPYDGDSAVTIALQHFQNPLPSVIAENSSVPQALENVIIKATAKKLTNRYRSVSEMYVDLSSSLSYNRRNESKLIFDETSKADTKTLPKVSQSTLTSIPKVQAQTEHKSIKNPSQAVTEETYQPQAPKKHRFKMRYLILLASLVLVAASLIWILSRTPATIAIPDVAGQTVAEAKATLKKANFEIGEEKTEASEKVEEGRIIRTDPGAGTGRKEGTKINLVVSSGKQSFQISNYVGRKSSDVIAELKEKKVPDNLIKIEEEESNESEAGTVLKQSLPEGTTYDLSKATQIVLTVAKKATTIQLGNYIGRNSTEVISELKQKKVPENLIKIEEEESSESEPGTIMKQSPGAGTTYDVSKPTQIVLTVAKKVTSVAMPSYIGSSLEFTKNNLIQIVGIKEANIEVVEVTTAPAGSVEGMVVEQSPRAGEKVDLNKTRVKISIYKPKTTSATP

B1: EzrA-HA (natural protein)
chain: T2 sequence
In the case of B1, the “ratio of prey protein band, GpsB-L-FLAG^3 bait to GpsB^+ control” value (from here on “ratio … to GpsB^+ control”) in the experiment with GpsB-L-FLAG^3 was 5.4 ratio.

B2: FtsZ-Myc (natural protein)
chain: MTFSFDTAAAQGAVIKVIGVGGGGGNAINRMVDEGVTGVEFIAANTDVQALSSTKAETVIQLGPKLTRGLGAGGQPEVGRKAAEESEETLTEAISGADMVFITAGMGGGSGTGAAPVIARIAKDLGALTVGVVTRPFGFEGSKRGQFAVEGINQLREHVDTLLIISNNNLLEIVDKKTPLLEALSEADNVLRQGVQGITDLITNPGLINLDFADVKTVMANKGNALMGIGIGSGEERVVEAARKAIYSPLLETTIDGAEDVIVNVTGGLDLTLIEAEEASQIVNQAAGQGVNIWLGTSIDESMRDEIRVTVVATGVRQDRVEKVVAPQARSATNYRETVKPAHSHGFDRHFDMAETVELPKQNPRRLEPTQASAFGDWDLRRESIVRTTDSVVSPVERFEAPISQDEDELDTPPFFKNR
With B2, the “ratio of prey protein band, EzrA-L-FLAG^3 bait to EzrA^+ control” value with EzrA-L-FLAG^3 turned out to be 15 ratio.

B3: bPBP2x-HA (enzyme)
chain: MKWTKRVIRYATKNRKSPAENRRRVGKSLSLLSVFVFAIFLVNFAVIIGTGTRFGTDLAKEAKKVHQTTRTVPAKRGTIYDRNGVPIAEDATSYNVYAVIDENYKSATGKILYVEKTQFNKVAEVFHKYLDMEESYVREQLSQPNLKQVSFGAKGNGITYANMMSIKKELEAAEVKGIDFTTSPNRSYPNGQFASSFIGLAQLHENEDGSKSLLGTSGMESSLNSILAGTDGIITYEKDRLGNIVPGTEQVSQRTMDGKDVYTTISSPLQSFMETQMDAFQEKVKGKYMTATLVSAKTGEILATTQRPTFDADTKEGITEDFVWRDILYQSNYEPGSTMKVMMLAAAIDNNTFPGGEVFNSSELKIADATIRDWDVNEGLTGGRTMTFSQGFAHSSNVGMTLLEQKMGDATWLDYLNRFKFGVPTRFGLTDEYAGQLPADNIVNIAQSSFGQGISVTQTQMIRAFTAIANDGVMLEPKFISAIYDPNDQTARKSQKEIVGNPVSKDAASLTRTNMVLVGTDPVYGTMYNHSTGKPTVTVPGQNVALKSGTAQIADEKNGGYLVGLTDYIFSAVSMSPAENPDFILYVTVQQPEHYSGIQLGEFANPILERASAMKDSLNLQTTAKALEQVSQQSPYPMPSVKDISPGDLAEELRRNLVQPIVVGTGTKIKNSSAEEGKNLAPNQQVLILSDKAEEVPDMYGWTKETAETLAKWLNIELEFQGSGSTVQKQDVRANTAIKDIKKITLTLGD
Regarding B3, the “ratio of prey protein band, StkP-FLAG^2 bait to StkP^+ control” value (“ratio … to StkP^+ control” below) with StkP-FLAG^2 was found to be 3.4 ratio.

B4: aPBP2a-HA^4 (enzyme)
chain: MKLDKLFEKFLSLFKKETSELEDSDSTILRRSRSDRKKLAQVGPIRKFWRRYHLTKIILILGLSAGLLVGIYLFAVAKSTNVNDLQNALKTRTLIFDREEKEAGALSGQKGTYVELTDISKNLQNAVIATEDRSFYKNDGINYGRFFLAIVTAGRSGGGSTITQQLAKNAYLSQDQTVERKAKEFFLALELSKKYSKEQILTMYLNNAYFGNGVWGVEDASKKYFGVSASEVSLDQAATLAGMLKGPELYNPLNSVEDSTNRRDTVLQNMVAAGYIDKNQETEAAEVDMTSQLHDKYEGKISDYRYPSYFDAVVNEAVSKYNLTEEEIVNNGYRIYTELDQNYQANMQIVYENTSLFPRAEDGTFAQSGSVALEPKTGGVRGVVGQVADNDKTGFRNFNYATQSKRSPGSTIKPLVVYTPAVEAGWALNKQLDNHTMQYDSYKVDNYAGIKTSREVPMYQSLAESLNLPAVATVNDLGVDKAFEAGEKFGLNMEKVDRVLGVALGSGVETNPLQMAQAYAAFANEGLMPEAHFISRIENASGQVIASHKNSQKRVIDKSVADKMTSMMLGTFTNGTGISSSPADYVMAGKTGTTEAVFNPEYTSDQWVIGYTPDVVISHWLGFPTTDENHYLAGSTSNGAAHVFRNIANTILPYTPGSTFTVENAYKQNGIAPANTKRQVQTNDNSQTDDNLSDIRGRAQSLVDEASRAISDAKIKEKAQTIWDSIVNLFR
As for B4, the “ratio … to GpsB^+ control” value with GpsB-L-FLAG^3 was 4 ratio.

B5: MreC (natural protein)
chain: MNRFKKSKYVIIVFVTVLLVSALLATTYSSTIVTKLGDGISLVDRVVQKPFQWFDSVKSDLAHLTRTYNENESLKKQLYQLEVKSNEVESLKTENEQLRQLLDMKSKLQATKTLAADVIMRSPVSWKQELTLDAGRSKGASENMLAIANGGLIGSVSKVEENSTIVNLLTNTENADKISVKIQHGSTTIYGIIIGYDKENDVLKISQLNSNSDISAGDKVTTGGLGNFNVADIPVGEVVATTHSTDYLTREVTVKLSADTHNVDVIELVGNS
With B5, the “ratio … to GpsB^+ control” value in the experiment with GpsB-L-FLAG^3 is 6.2 ratio. Moreover, in the experiment with StkP-FLAG^2, the “ratio … to StkP^+ control” value worked out at 8.5 ratio.

B6: bPBP2b-HA (enzyme)
chain: MRKFNSHSIPIRLNLLFSIVILLFMTIIGRLLYMQVLNKDFYEKKLASASQTKITSSSARGEIYDASGKPLVENTLKQVVSFTRSNKMTATDLKETAKKLLTYVSISSPNLTERQLADYYLADPEIYKKIVEALPSEKRLDSDGNRLSESELYNNAVDSVQTSQLNYTEDEKKEIYLFSQLNAVGNFATGTIATDPLNDSQVAVIASISKEMPGISISTSWDRKVLETSLSSIVGSVSSEKAGLPAEEAEAYLKKGYSLNDRVGTSYLEKQYEETLQGKRSVKEIHLDKYGNMESVDTIEEGSKGNNIKLTIDLAFQDSVDALLKSYFNSELENGGAKYSEGVYAVALNPKTGAVLSMSGIKHDLKTGELTPDSLGTVTNVFVPGSVVKAATISSGWENGVLSGNQTLTDQSIVFQGSAPINSWYTQAYGSFPITAVQALEYSSNTYMVQTALGLMGQTYQPNMFVGTSNLESAMEKLRSTFGEYGLGTATGIDLPDESTGFVPKEYSFANYITNAFGQFDNYTPMQLAQYVATIANNGVRVAPRIVEGIYGNNDKGGLGDLIQQLQPTEMNKVNISDSDMSILHQGFYQVAHGTSGLTTGRAFSNGALVSISGKTGTAESYVADGQQATNTNAVAYAPSDNPQIAVAVVFPHNTNLTNGVGPSIARDIINLYQKYHPMN
As for B6, in the experiment with GpsB-L-FLAG^3, the “ratio … to GpsB^+ control” value worked out at 18.3 ratio. In addition, the “ratio … to StkP^+ control” value with StkP-FLAG^2 was found to be 8.1 ratio.

The values above are taken from article PMC5344783 (Molecular microbiology, 2017).
